Results reported in article PMC4906247.

B1: hDAPK2 CD + ARD wild type (pETM14 construct for SEC, SAXS, CaM pull-down and FA) [human] / itself (parent)
chain: NMEPFKQQKVEDFYDIGEELGSGQFAIVKKCREKSTGLEYAAKFIKKRQSRASRRGVSREEIEREVSILRQVLHHNVITLHDVYENRTDVVLILELVSGGELFDFLAQKESLSEEEATSFIKQILDGVNYLHTKKIAHFDLKPENIMLLDKNIPIPHIKLIDFGLAHEIEDGVEFKNIFGTPEFVAPEIVNYEPLGLEADMWSIGVITYILLSGASPFLGDTKQETLANITAVSYDFDEEFFSQTSELAKDFIRKLLVKETRKRLTIQEALRHPWITPVDNQQAMVRRESVVNLENFRKQYVRRRWKLSFSIVSLCNHLTR

Variants of: B1
Assay: analytical size-exclusion chromatography (SEC)
Conditions: with itself

screen value | Variant
4410 kDa | chain 1 R48E R51E R54E R55E
